Laboratory results as given in paper PMC4869865 (Structure (London, England : 1993), 2010).
Where two headings read alike, the source gives them in different places.

Key:
Test in all cases: native MS
native MS [1] = biological target: the molecule itself
δδ′ subcomplex = δδ′ subcomplex (E. coli, UniProt P28630 1-343; P28631 1-334)
native MS [2] = biological target: the molecule itself; remark: listed apart in the source

B1: γ subunit (DnaX) of the E. coli clamp loader (natural protein, UniProt P06710-2 1-431, looked up)
chain: MSYQVLARKWRPQTFADVVGQEHVLTALANGLSLGRIHHAYLFSGTRGVGKTSIARLLAKGLNCETGITATPCGVCDNCREIEQGRFVDLIEIDAASRTKVEDTRDLLDNVQYAPARGRFKVYLIDEVHMLSRHSFNALLKTLEEPPEHVKFLLATTDPQKLPVTILSRCLQFHLKALDVEQIRHQLEHILNEEHIAHEPRALQLLARAAEGSLRDALSLTDQAIASGDGQVSTQAVSAMLGTLDDDQALSLVEAMVEANGERVMALINEAAARGIEWEALLVEMLGLLHRIAMVQLSPAALGNDMAAIELRMRELARTIPPTDIQLYYQTLLIGRKELPYAPDRRMGVEMTLLRALAFHPRMPLPEPEVPRQSFAPVAPTAVMTPTQVPPQPQSAPQQAPTVPLPETTSQVLAARQQLQRVQGATKAKKE
stoichiometry N (native MS [1]): 4
binding result (δδ′ subcomplex): binds
stoichiometry N (native MS [2]): 3
